The source of these data is the supplement of paper PMC7877785.

± gives the uncertainty stated by the source.

The series in a line: self-splicing fitness, log relative to wild type (ln ratio); higher = more splicing; Tetrahymena group I intron in knt gene, E. coli kanamycin selection, DiMSum; sequences stand for … in CUCUCU…GGAGGGAAAAGUUAUCAGGCAUGCACCUGGUAGCUAGUCUUUAAACCAAUAGAUUGCAUCGGUUUAAAAGGCAAGACCGUCAAAUUGCGGGAAAGGGGUCAACAGCCGUUCAGUACCAAGUCUCAGGGGAAACUUUGAGAUGGCCUUGCAAAGGGUAUGGUAAUAAGCUGACGGACAUGGUCCUAACCACGCAGCCAAGUCCUAAGUCAACAGAUCUUCUGUUGAUAUGGAUGCAGUUCACAGACUAAAUGUCGGUCGGGGAAGAUGUAUUCUUCUCAUAAGAUAUAGUCGGACCUCUCCUUAAUGGGAGCUAGCGGAUGAAGUGAUGCAACACUGGAGCCGCUGGGAACUAAUUUGUAUGCGAAAGUAUAUUGAUUAGUUUUGGAGUACUCGUGGUCG
The method in brief: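 Six replicate transformations of E. coli BL21(DE3) with a pET-22b(+) library were grown overnight at 37°C or 30°C. The library randomised all eight P1ex-region intron nucleotides, the intron lying in the knt kanamycin-resistance gene, and plates were LB agar with or without 25 μg/mL kanamycin plus 100 μg/mL carbenicillin, 50 μM IPTG and 0.2% rhamnose. Pooled colonies were amplicon-sequenced on an Illumina HiSeq 2500, and fitness is the DiMSum error-weighted combination of wild-type-normalised replicate fold changes, kanamycin versus none.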

On to AGCAAGCAAUAUUACGCAUU, for which the “self-splicing fitness (ln)” value runs as follows: (30 °C) -2.57 ± 0.17; (37 °C) -1.45 ± 0.19. The matching figures for AAUUAGCAAUAUUACGGCUG: -0.324 ± 0.082 and 0.339 ± 0.12. For GCAUAGCAAUAUUACGAGGA, the “self-splicing fitness (ln)” value (30 °C) was -2.47 ± 0.32 and the “self-splicing fitness (ln)” value (37 °C) is -2.21 ± 0.22. Take AUCCAGCAAUAUUACGAUGU: the “self-splicing fitness (ln)” value is, setting by setting: (30 °C) -0.743 ± 0.066; (37 °C) 0.613 ± 0.093. The matching figures for GCCUAGCAAUAUUACGAGGU: -3.07 ± 0.18 and -2.9 ± 0.23.

Turning to CGUGAGCAAUAUUACGGCAU, the “self-splicing fitness (ln)” value by setting is: (30 °C) -2.59 ± 0.11; (37 °C) -2.28 ± 0.16. Turning to UGGAAGCAAUAUUACGCUGU, the “self-splicing fitness (ln)” value by setting is: (30 °C) -2.58 ± 0.41; (37 °C) -2.3 ± 0.49. In the same order, the values of CAAAAGCAAUAUUACGGGGU are -4.06 ± 0.2 and -2.7 ± 0.18. The matching figures for CGAAAGCAAUAUUACGGAAA: -2.9 ± 0.28 and -2.49 ± 0.22. For AUUCAGCAAUAUUACGAAGU, the “self-splicing fitness (ln)” value is -1.52 ± 0.11 (30 °C) and -0.236 ± 0.12 (37 °C). In the same order, the values of GCUCAGCAAUAUUACGUUCC are -0.532 ± 0.062 and -0.507 ± 0.088. In the same order, the values of UAUAAGCAAUAUUACGCGGG are -2.17 ± 0.14 and -1.89 ± 0.18. The matching figures for AAUUAGCAAUAUUACGCGAU: -3.62 ± 0.32 and -2.31 ± 0.23. On to CUCGAGCAAUAUUACGAAGG, for which the “self-splicing fitness (ln)” value reads like this: (30 °C) -2.2 ± 0.27; (37 °C) -1.38 ± 0.41.

As for UACAAGCAAUAUUACGCGGG, the “self-splicing fitness (ln)” value was -2.43 ± 0.086 (30 °C) and -1.25 ± 0.099 (37 °C). The matching figures for GUUAAGCAAUAUUACGUCUC: -0.932 ± 0.1 and -0.514 ± 0.12. The matching figures for GCGUAGCAAUAUUACGUACU: -2.08 ± 0.15 and -0.552 ± 0.17. Turning to AUUCAGCAAUAUUACGAUGC, the “self-splicing fitness (ln)” value is -1.27 ± 0.11 (30 °C) and 0.0653 ± 0.13 (37 °C).

Regarding GGUUAGCAAUAUUACGUUGA, the “self-splicing fitness (ln)” value reads like this: (30 °C) -2 ± 0.2; (37 °C) -1.54 ± 0.17.

On to UUCCAGCAAUAUUACGCUGU, for which the “self-splicing fitness (ln)” value is -3.96 ± 0.24 (30 °C) and -2.42 ± 0.22 (37 °C). GCGAAGCAAUAUUACGCCAU: where the note is “37 °C”, the “self-splicing fitness (ln)” value was -2.48 ± 0.36. For the sequence UGAAAGCAAUAUUACGAGGG, the “self-splicing fitness (ln)” value runs as follows: (30 °C) -2.91 ± 0.17; (37 °C) -3.6 ± 0.42. In the same order, the values of GAACAGCAAUAUUACGCAGU are -3.37 ± 0.11 and -2.5 ± 0.13. The matching figures for UCACAGCAAUAUUACGUGCU: -3.75 ± 0.19 and -2.72 ± 0.15.

For the sequence UGUAAGCAAUAUUACGUGCU, the “self-splicing fitness (ln)” value by setting is: (30 °C) -1.48 ± 0.13; (37 °C) -0.148 ± 0.16.

As for AGUUAGCAAUAUUACGCCCC, the “self-splicing fitness (ln)” value (30 °C) is -0.473 ± 0.23.

For GGGAAGCAAUAUUACGCAGU, the “self-splicing fitness (ln)” value reads like this: (30 °C) -2 ± 0.13; (37 °C) 0.176 ± 0.14.

In the case of GGCUAGCAAUAUUACGAGAA, the “self-splicing fitness (ln)” value (37 °C) is -0.208 ± 0.37. Regarding AUAAAGCAAUAUUACGGCGA, the “self-splicing fitness (ln)” value turned out to be 0.447 ± 0.1 (30 °C) and 1.03 ± 0.14 (37 °C).

For the sequence GCAUAGCAAUAUUACGGCCG, the “self-splicing fitness (ln)” value (30 °C) was -2.37 ± 0.36 and the “self-splicing fitness (ln)” value (37 °C) is -0.909 ± 0.39. The matching figures for CCUUAGCAAUAUUACGUGGA: -4.29 ± 0.34 and -2 ± 0.2. In the case of UCUUAGCAAUAUUACGGAAC, the “self-splicing fitness (ln)” value is, setting by setting: (30 °C) -0.987 ± 0.34; (37 °C) -1.99 ± 0.43. The matching figures for GACCAGCAAUAUUACGCUCC: -2.32 ± 0.22 and -1.83 ± 0.21. The matching figures for UGUCAGCAAUAUUACGUUAA: -0.609 ± 0.1 and -0.411 ± 0.11. The matching figures for ACCUAGCAAUAUUACGAAGU: -3.53 ± 0.19 and -2.72 ± 0.19. On to UGCGAGCAAUAUUACGAAUC, for which the “self-splicing fitness (ln)” value (30 °C) is -4.3 ± 0.43 and the “self-splicing fitness (ln)” value (37 °C) was -2.41 ± 0.23.

Regarding GACGAGCAAUAUUACGCUAU, the “self-splicing fitness (ln)” value is, setting by setting: (30 °C) -3.39 ± 0.2; (37 °C) -2.42 ± 0.25. The matching figures for GCUAAGCAAUAUUACGCAAC: -2.35 ± 0.42 and -0.352 ± 0.47.

Consider UACAAGCAAUAUUACGCUAG, for which the “self-splicing fitness (ln)” value by setting is: (30 °C) -2.16 ± 0.11; (37 °C) -1.13 ± 0.11. The matching figures for ACAGAGCAAUAUUACGGUAC: -3.57 ± 0.2 and -3.02 ± 0.25. As to UCCCAGCAAUAUUACGACAG, the “self-splicing fitness (ln)” value (37 °C) is -3.55 ± 0.37. With CCUAAGCAAUAUUACGGGUC, the “self-splicing fitness (ln)” value is -4.66 ± 0.36 (30 °C) and -3.25 ± 0.22 (37 °C). The matching figures for AAAAAGCAAUAUUACGCGAC: -2.77 ± 0.18 and -1.23 ± 0.12. For CUCAAGCAAUAUUACGGCAC, the “self-splicing fitness (ln)” value is -2.74 ± 0.2 (30 °C) and -1.97 ± 0.28 (37 °C). The matching figures for CCUUAGCAAUAUUACGGCGU: -3.94 ± 0.33 and -2.78 ± 0.32. In the same order, the values of GGGCAGCAAUAUUACGGAAU are -1.49 ± 0.11 and -1.3 ± 0.19. The matching figures for AGUUAGCAAUAUUACGAGGA: -2.32 ± 0.26 and -2.43 ± 0.25. UAGAAGCAAUAUUACGGCGU: the “self-splicing fitness (ln)” value was -0.78 ± 0.077 (30 °C) and -0.678 ± 0.11 (37 °C).

AGGAAGCAAUAUUACGGAAG: the “self-splicing fitness (ln)” value is -2.98 ± 0.25 (30 °C) and -2.28 ± 0.39 (37 °C). The matching figures for UUCAAGCAAUAUUACGUCAU: -2.97 ± 0.15 and -2.59 ± 0.13. In the same order, the values of CUGCAGCAAUAUUACGAAGG are -2.05 ± 0.13 and -1.06 ± 0.16. UCAGAGCAAUAUUACGGGUA: the “self-splicing fitness (ln)” value runs as follows: (30 °C) -3.47 ± 0.27; (37 °C) -2.64 ± 0.31. Regarding GGUAAGCAAUAUUACGCAGU, the “self-splicing fitness (ln)” value by setting is: (30 °C) -1.51 ± 0.17; (37 °C) -1.55 ± 0.24. The matching figures for UGGUAGCAAUAUUACGUCCG: -0.727 ± 0.15 and -0.449 ± 0.24. In the same order, the values of CGACAGCAAUAUUACGCCUG are -0.901 ± 0.066 and -0.0701 ± 0.069.

As to UUAAAGCAAUAUUACGUGGU, the “self-splicing fitness (ln)” value is, setting by setting: (30 °C) -3.26 ± 0.12; (37 °C) -2.73 ± 0.15. In the same order, the values of AAGCAGCAAUAUUACGAAUG are -3.74 ± 0.18 and -2.45 ± 0.16.

As for CAGUAGCAAUAUUACGACCU, the “self-splicing fitness (ln)” value was -0.458 ± 0.15 (30 °C) and -0.391 ± 0.2 (37 °C). The matching figures for CGAGAGCAAUAUUACGCGCA: -3.56 ± 0.48 and -1.38 ± 0.26. In the case of CCUUAGCAAUAUUACGGGUA, the “self-splicing fitness (ln)” value reads like this: (30 °C) -2.65 ± 0.19; (37 °C) -2.38 ± 0.26.

For AAGUAGCAAUAUUACGGGAA, the “self-splicing fitness (ln)” value reads like this: (30 °C) -2.74 ± 0.2; (37 °C) -2.8 ± 0.23. In the case of UCUAAGCAAUAUUACGACAG, the “self-splicing fitness (ln)” value was -1.58 ± 0.1 (30 °C) and -0.799 ± 0.15 (37 °C). Take AUUUAGCAAUAUUACGUCCU: the “self-splicing fitness (ln)” value was -0.237 ± 0.16 (30 °C) and 0.18 ± 0.23 (37 °C). In the same order, the values of GUAGAGCAAUAUUACGCGGG are -2.65 ± 0.15 and -1.43 ± 0.17. The matching figures for CUUAAGCAAUAUUACGUCUA: -3.67 ± 0.25 and -2.97 ± 0.23.

GAGGAGCAAUAUUACGCUCC: the “self-splicing fitness (ln)” value (37 °C) is -0.714 ± 0.48. Consider GUUAAGCAAUAUUACGAAUA, for which the “self-splicing fitness (ln)” value (30 °C) is -1.19 ± 0.25 and the “self-splicing fitness (ln)” value (37 °C) is -0.46 ± 0.32. The matching figures for UACCAGCAAUAUUACGGAUA: -1.12 ± 0.077 and -0.394 ± 0.078. In the same order, the values of CGGCAGCAAUAUUACGAGGU are -3.26 ± 0.19 and -1.83 ± 0.15.

Take UCGGAGCAAUAUUACGUAGG: the “self-splicing fitness (ln)” value is, setting by setting: (30 °C) -1.78 ± 0.13; (37 °C) -0.619 ± 0.15. In the same order, the values of AAGCAGCAAUAUUACGAUAA are -1.69 ± 0.12 and -1.16 ± 0.13. With GUUGAGCAAUAUUACGUGGU, the “self-splicing fitness (ln)” value (30 °C) was -3.25 ± 0.28. Turning to GAGAAGCAAUAUUACGGGUU, the “self-splicing fitness (ln)” value (30 °C) was -1.88 ± 0.11 and the “self-splicing fitness (ln)” value (37 °C) was -1.87 ± 0.16. In the case of UUGGAGCAAUAUUACGCUUG, the “self-splicing fitness (ln)” value (30 °C) is -2.69 ± 0.3 and the “self-splicing fitness (ln)” value (37 °C) is -1.25 ± 0.27. CCUAAGCAAUAUUACGGAGG: the “self-splicing fitness (ln)” value (30 °C) was -4.42 ± 0.29 and the “self-splicing fitness (ln)” value (37 °C) was -2.71 ± 0.31. The matching figures for UUCAAGCAAUAUUACGAAAU: -3.5 ± 0.25 and -1.43 ± 0.19. In the same order, the values of GAGCAGCAAUAUUACGAGGA are -2.48 ± 0.17 and -2.89 ± 0.22.
